Experimental data published in patent US20250302761A1 (INSTITUT NATIONAL DE LA SANT ET DE LA RECHERCHE M DICALE, published 2025).

Biological target: FKBP2-RFP-CD63
Test: cell-based or functional assay

B1: FRB-NanoLuciferase-HA (other)
chain: ILWHEMWHEGLEEASRLYFGERNVKGMFEVLEPLHAMMERGPQTLKETSFNQAYGRDLMEAQEWCRKYMKSGNVKDLLQAWDLYYHVFRRISK
  EV NLuc specific activity, normalized on the 'No Drug' condition: 3.5 fold
  NLuc activity in Fraction 7 of the floatation assay, 'Drug' against 'No Drug': 4 fold
